Reference: the supplement of paper PMC10724198
± gives the standard deviation of the averaged measurements.

What was measured:
Saccharomyces cerevisiae [1] = test: protein stability index of tFT-peptide fusion (C-terminal peptide) (PSI (0-1 scale)); higher = more stable (slower turnover)
Procedure: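 MPS profiling in S. cerevisiae of the tFT-X12 degron library: putative degron peptides plus stable controls, 12 aa, fused to the C-terminus of a sfGFP-mCherry timer. Cells are FACS-sorted into 8 mCherry/sfGFP bins and deep-sequenced. PSI runs from 0 (unstable) to 1 (stable). Backgrounds are wild type, das1Δ and doa10Δ at 30 °C, and wild type, das1Δ, cdc34-1 and cdc53-1 at 37 °C; 2-3 technical replicates each.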

Saccharomyces cerevisiae [2] = test: as above; settings: genetic background: wild type; temperature: 30 C
[3] = genetic background: cdc34-1, temperature: 37 C
[4] = genetic background: cdc53-1, temperature: 37 C
[5] = genetic background: das1 deletion, temperature: 30 C
[6] = genetic background: das1 deletion, temperature: 37 C
[7] = genetic background: doa10 deletion, temperature: 30 C
[8] = genetic background: wild type, temperature: 30 C
[9] = genetic background: wild type, temperature: 37 C
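Also: PSI is a weighted mean of sequencing reads over stability bins, variants kept only with over 10 reads, mCherry proximal and sfGFP distal, peptide attached via GGGS linker.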

Sequence | protein stability index (Saccharomyces cerevisiae [2]) | other results
LPPTPPLSPPPH |  | protein stability index (Saccharomyces cerevisiae [1]; [3]): 0.644 ± 0.025; protein stability index (Saccharomyces cerevisiae [1]; [4]): 0.688 ± 0.0077; protein stability index (Saccharomyces cerevisiae [1]; [5]): 0.435 ± 0.028; protein stability index (Saccharomyces cerevisiae [1]; [6]): 0.5935 ± 0.0017; protein stability index (Saccharomyces cerevisiae [1]; [7]): 0.414 ± 0.0084; protein stability index (Saccharomyces cerevisiae [1]; [8]): 0.433 ± 0.014; protein stability index (Saccharomyces cerevisiae [1]; [9]): 0.5864 ± 0.005
AQCRGGGLSGVG |  | protein stability index (Saccharomyces cerevisiae [1]; [3]): 0.572 ± 0.023; protein stability index (Saccharomyces cerevisiae [1]; [4]): 0.6409 ± 0.0041; protein stability index (Saccharomyces cerevisiae [1]; [5]): 0.566 ± 0.016; protein stability index (Saccharomyces cerevisiae [1]; [6]): 0.615 ± 0.014; protein stability index (Saccharomyces cerevisiae [1]; [7]): 0.57 ± 0.013; protein stability index (Saccharomyces cerevisiae [1]; [8]): 0.562 ± 0.011; protein stability index (Saccharomyces cerevisiae [1]; [9]): 0.603 ± 0.02
PSPHRAPPGGHP |  | protein stability index (Saccharomyces cerevisiae [1]; [3]): 0.68 ± 0.059; protein stability index (Saccharomyces cerevisiae [1]; [4]): 0.699 ± 0.026; protein stability index (Saccharomyces cerevisiae [1]; [5]): 0.6636 ± 0.0019; protein stability index (Saccharomyces cerevisiae [1]; [6]): 0.7271 ± 0.0067; protein stability index (Saccharomyces cerevisiae [1]; [7]): 0.673 ± 0.03; protein stability index (Saccharomyces cerevisiae [1]; [8]): 0.688 ± 0.04; protein stability index (Saccharomyces cerevisiae [1]; [9]): 0.701 ± 0.0029
RPPPTPRSVLLN |  | protein stability index (Saccharomyces cerevisiae [1]; [3]): 0.67 ± 0.021; protein stability index (Saccharomyces cerevisiae [1]; [4]): 0.7154 ± 0.0015; protein stability index (Saccharomyces cerevisiae [1]; [5]): 0.668 ± 0.011; protein stability index (Saccharomyces cerevisiae [1]; [6]): 0.71 ± 0.038; protein stability index (Saccharomyces cerevisiae [1]; [7]): 0.265 ± 0.024; protein stability index (Saccharomyces cerevisiae [1]; [8]): 0.286 ± 0.024; protein stability index (Saccharomyces cerevisiae [1]; [9]): 0.506 ± 0.011
SDRLLYLGNYDV | 0.773 ± 0.0011 | 
WMSFLARVVTFE | 0.716 ± 0.025 | 
SWYSRARMAGEG | 0.652 ± 0.0093 | 
SPHTPDPTTTPH | 0.648 ± 0.097 | 
VGERVSRRIQTR | 0.699 ± 0.052 | 
TTACLLERFTRV | 0.664 ± 0.028 | 
LPRSSGSTTPYP | 0.688 ± 0.025 | 
VVLGFGPRFRVV | 0.584 ± 0.018 | 
TCVLPDLNTRWS | 0.685 ± 0.02 | 
AFCLLSSLASGF | 0.759 ± 0.067 | 
YDGGLAALQVLL | 0.68 ± 0.051 | 
SPTRPPSPIISR | 0.7181 ± 0.002 | 
GTTDVHLLLECE | 0.729 ± 0.011 | 
LEVLGVPQLIRS | 0.534 ± 0.07 | 
WKKDTKTKKKKN | 0.695 ± 0.034 | 
KKKTKRKQKIET | 0.727 ± 0.022 | 
FLGAVVGVGLVG | 0.658 ± 0.053 | 

Sequence | protein stability index (Saccharomyces cerevisiae [2]) | other results
GTMAVWKGQRSG | 0.698 ± 0.04 | 
DEVGVGASSNVF | 0.619 ± 0.037 | 
LPIKRLWKGLHG | 0.652 ± 0.1 | 
STTPKFNILASD | 0.646 ± 0.022 | 
AHADISPIHNLH | 0.627 ± 0.0066 | 
EWGRSGVRCRLG | 0.571 ± 0.052 | 
SHLAHLHPHIAR | 0.675 ± 0.026 | 
DRSRATRSPHIN | 0.703 ± 0.023 | 
LQPRLLSIVPYN | 0.635 ± 0.03 | 
SSVQVSMGTAAG | 0.681 ± 0.036 | 
LSSARPMNLPPG | 0.67 ± 0.057 | 
FSSPLSSPSPLY | 0.6834 ± 0.0059 | 
MTLSCGVGLTVG | 0.6521 ± 0.0009 | 
ETWRRIDRLFGS | 0.619 ± 0.058 | 
FAAGIMWQSGLK | 0.657 ± 0.019 | 
LPLPLPWHSCPP | 0.721 ± 0.029 | 
LRPPPPRGPSPP | 0.689 ± 0.023 | 
GHSNVTSQIRRG | 0.643 ± 0.017 | 
RLLCSETPPTLA | 0.665 ± 0.014 | 
GGGAGGVVGGIS | 0.694 ± 0.027 | 
WGGYSLKFRTRR | 0.705 ± 0.0025 | 

Sequence | protein stability index (Saccharomyces cerevisiae [2]) | other results
PPHSIPSPSHPR | 0.714 ± 0.052 | 
FCPPLSFPPPLS | 0.718 ± 0.13 | 
LLSAPFRSFFTL | 0.5548 ± 0.0046 | 
QVPDPSVNQPPS | 0.699 ± 0.028 | 
RQQRKIYTDKQD | 0.754 ± 0.0057 | 
EKKKEKKGKKRE | 0.683 ± 0.029 | 
FARELGNLNVEK | 0.761 ± 0.056 | 
TKEFKKTNTTGY | 0.7406 ± 0.0039 | 
WGLGGVCAVRGS | 0.575 ± 0.094 | 
KAIVKKCTDSED | 0.679 ± 0.011 | 
SPPHPRPPTLRT | 0.609 ± 0.013 | 
SSSPTFLLSPFP | 0.721 ± 0.012 | 
SAPFGFLFFARL | 0.815 ± 0.083 | 
YPPCSPGPLAPS | 0.672 ± 0.026 | 
FALAVPLDPWSS | 0.737 ± 0.065 | 
SGACRLEESGKV | 0.755 ± 0.061 | 
RNNKMYKYQGNL | 0.662 ± 0.083 | 
QSILVCELGMEG | 0.67 ± 0.051 | 
LLPLPPLLRLPL | 0.5803 ± 0.001 | 
KKKKQKKRETTK | 0.636 ± 0.012 | 
APSFSSPPVPLF | 0.698 ± 0.0085 | 

Sequence | protein stability index (Saccharomyces cerevisiae [2]) | other results
YKSELSIPYAPV | 0.687 ± 0.015 | 
FFSFWVGATTIE | 0.70044 ± 0.00014 | 
VSPLPSPVPLLP | 0.69 ± 0.076 | 
PTTVPPGPTSVH | 0.755 ± 0.058 | 
LPPCAPPLPPSS | 0.706 ± 0.067 | 
VCNSIPLTPPPA |  | protein stability index (Saccharomyces cerevisiae [1]; [3]): 0.679 ± 0.031; protein stability index (Saccharomyces cerevisiae [1]; [4]): 0.7272 ± 0.0045; protein stability index (Saccharomyces cerevisiae [1]; [5]): 0.618 ± 0.025; protein stability index (Saccharomyces cerevisiae [1]; [6]): 0.716 ± 0.015; protein stability index (Saccharomyces cerevisiae [1]; [7]): 0.6171 ± 0.00098; protein stability index (Saccharomyces cerevisiae [1]; [8]): 0.641 ± 0.026; protein stability index (Saccharomyces cerevisiae [1]; [9]): 0.703 ± 0.033
APLFLPPPSLFF | 0.6934 ± 0.0052 | 
SPPTTHPPSSHG | 0.7486 ± 0.0062 | 
YSLQSCGFLANE | 0.642 ± 0.03 | 
LVHRGRRGSNIE | 0.7537 ± 0.0011 | 
HPQPIPVGGLSF | 0.6962 ± 0.0049 | 
HWSVATNMLEQH | 0.74 ± 0.054 | 
PLHPSFPPPPAP | 0.5147 ± 0.0044 | 
DSTLCSCSLHTS | 0.777 ± 0.12 | 
GRLWGGIKGGMG | 0.663 ± 0.0096 | 
TIIEHYMMINEK | 0.692 ± 0.064 | 
SRRCKAFLCRGY | 0.6663 ± 0.0053 | 
LRSPHPLPPPPP | 0.732 ± 0.062 | 
